For this experiment, the target named is T1, recombinant human beta secretase (BACE), E. coli construct pQE70-BACE (human, UniProt P56817 57-453).
T1 construct: also called Asp2; memapsin 2
Briefly: affinity chromatography, peptide immobilised on resin. Here is the method: Prior to purification, the pH of the refolded protein was lowered from about 10 to 8.5 with HCl. The solution was loaded onto three 50 ml Q-Sepharose columns (Pharmacia Biotech XK 50). The columns were pre-equilibrated in 0.4 M Urea, 10 mM AMPSO, pH 8.5. After refolded protein was loaded onto the columns, they were washed with 500 ml of 0.4 M Urea, 10 mM TRIS, pH 8.2. The columns were eluted with 180-245 ml of 0.75 M NaCl in 0.4 M Urea 10 mM TRIS buffer, pH 8.2. The eluates were then dialyzed versus 20 mM HEPES, pH 8.0. The samples were then removed from dialysis and dropped into 1 M NaMES, pH 5.7 (0.1 M final concentration). After centrifugation (20 K×g) the supernatant was dropped into 1 M Na-acetate, 1 M NaMES, pH 5.0 (0.2 M Na-acetate, 0.28 M Na-MES was the final concentration). […] This solution was then applied to a 15 ml affinity column equilibrated at the same pH. The column was washed with 6 column volumes of 20 mM sodium acetate buffer pH 4.5, 150 mM NaCl. BACE was eluted at pH 8.5 using about 50 ml of 0.1 M borate buffer. This final step removed any residual contaminants. From 40 liter of *E. coli* cell culture, the amount of protein obtained was 137 mg of highly purified pQE70-BACE construct. Purified pQE70-BACE was dialyzed into 100 mM NaBorate pH 8.5.

Where no end group is shown, it is not given here. [ ]: non-standard residue; d: D form. Sta = CC(C)C[C@H](N)[C@@H](O)CC(=O)O

T1 sequence (P56817 other isoform, or with tags, fused parts or gaps limits assumed): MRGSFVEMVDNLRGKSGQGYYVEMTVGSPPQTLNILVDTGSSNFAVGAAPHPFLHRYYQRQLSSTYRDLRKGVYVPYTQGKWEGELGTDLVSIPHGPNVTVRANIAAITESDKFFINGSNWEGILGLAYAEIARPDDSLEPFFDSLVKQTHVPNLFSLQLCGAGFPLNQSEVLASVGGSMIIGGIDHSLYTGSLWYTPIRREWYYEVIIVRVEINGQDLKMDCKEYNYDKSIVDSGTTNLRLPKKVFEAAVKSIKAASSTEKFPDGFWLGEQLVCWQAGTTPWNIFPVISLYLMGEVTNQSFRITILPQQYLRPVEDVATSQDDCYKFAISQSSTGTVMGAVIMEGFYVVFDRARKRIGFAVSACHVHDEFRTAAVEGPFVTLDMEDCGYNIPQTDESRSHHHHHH

As for SEVN[Sta]VAEFRGGC [synthetic peptide Ser-Glu-Val-Asn-Sta-Val-Ala-Glu-Phe-Arg-Gly-Gly-Cys (where Sta=statine)], the binding result is “binds”.

Values taken from patent US7829303 (ELAN PHARMACEUTICALS, dated 2010).
